# B1: FADS1 (parent)
# chain: LNFQIEHHLFPTMPRHNYHKVAPL
# Variants of: B1
# Assay: protein stability index of a GFP-peptide fusion (GPS, HEK-293T) (PSI 1-6); higher = more stable
# Details: c terminus: a fixed tail appended
# 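Note: lentivirally expressed fusions sorted by FACS into six bins by GFP to DsRed ratio, PSI derived from sequencing read proportions per bin multiplied by bin number.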
row,Variant,protein stability index
1,LNFQIEHHLFPTMPRHNYHKVWPL [A22W],2.34
2,LNFQIEHHLFPTMPRHNYHKVLPL [A22L],2.05
3,LNFQIEHHLFPTMPRHNYHKVTPL [A22T],2.09
4,LNFQIEHHLFPTMPRHNYHKVDPL [A22D],1.92
5,LNFQIEHHLFPTMPRHNYHKVPPL [A22P],2.1
6,LNFQIEHHLFPTMPRHNYHKVHPL [A22H],1.89
7,LNFQIEHHLFPTMPLHNYHKVAPL [R15L],2.42
8,LNFQIEHHLFPTMPFHNYHKVAPL [R15F],2.68
9,LNFQIEHHLFPTMPKHNYHKVAPL [R15K],2.35
10,LNFQIEHHLFPTMPTHNYHKVAPL [R15T],2.55
11,LNFQIEHWLFPTMPRHNYHKVAPL [H8W],2.58
12,LNSQIEHHLFPTMPRHNYHKVAPL [F3S],2.15
13,LNTQIEHHLFPTMPRHNYHKVAPL [F3T],2.4
14,LNQQIEHHLFPTMPRHNYHKVAPL [F3Q],2.17
15,LNWQIEHHLFPTMPRHNYHKVAPL [F3W],1.92
16,LNAQIEHHLFPTMPRHNYHKVAPL [F3A],2.58
17,LNFQIEHHLQPTMPRHNYHKVAPL [F10Q],1.92
18,LNFQIEHHLHPTMPRHNYHKVAPL [F10H],3.04
19,LNFQIEHHLGPTMPRHNYHKVAPL [F10G],2.73
20,LNFQIEHHLNPTMPRHNYHKVAPL [F10N],2.28
21,LNFQIEHHLTPTMPRHNYHKVAPL [F10T],1.39
22,LNFQIEHHLKPTMPRHNYHKVAPL [F10K],2.14
23,LNFQLEHHLFPTMPRHNYHKVAPL [I5L],2.35
24,LNFQGEHHLFPTMPRHNYHKVAPL [I5G],2.01

row,Variant,protein stability index
1,LNFQPEHHLFPTMPRHNYHKVAPL [I5P],2.14
2,LNFQAEHHLFPTMPRHNYHKVAPL [I5A],1.83
3,LNFQIEHHLFPTMPRHAYHKVAPL [N17A],1.98
4,LNFQIEHHLFPTMPRHYYHKVAPL [N17Y],2.39
5,LNFQIEHHLFPTMPRHHYHKVAPL [N17H],1.81
6,LNFQIEHHLFPTMPRHCYHKVAPL [N17C],3.44
7,LNFQIEHHLFPTMPRHKYHKVAPL [N17K],1.27
8,YNFQIEHHLFPTMPRHNYHKVAPL [L1Y],1.93
9,PNFQIEHHLFPTMPRHNYHKVAPL [L1P],2.26
10,TNFQIEHHLFPTMPRHNYHKVAPL [L1T],2.03
11,MNFQIEHHLFPTMPRHNYHKVAPL [L1M],1.63
12,FNFQIEHHLFPTMPRHNYHKVAPL [L1F],3.4
13,LQFQIEHHLFPTMPRHNYHKVAPL [N2Q],1.91
14,LGFQIEHHLFPTMPRHNYHKVAPL [N2G],1.24
15,LNFQIEHHLFPTMPRHNYHKVAPN [L24N],2.15
16,LNFQIEHHLFPTMPRHNYHKVAPG [L24G],2.35
17,LNFQIEHHLFPTMPRHNYHKVAPH [L24H],2.27
18,LNFRIEHHLFPTMPRHNYHKVAPL [Q4R],1.6
19,LNFGIEHHLFPTMPRHNYHKVAPL [Q4G],2.08
20,LNFSIEHHLFPTMPRHNYHKVAPL [Q4S],1.3
21,LNFIIEHHLFPTMPRHNYHKVAPL [Q4I],3.5
22,LNFQIEHHLFPMMPRHNYHKVAPL [T12M],1.73
23,LNFQIEHHLFPHMPRHNYHKVAPL [T12H],1.46
24,LNFQIEHHLFPWMPRHNYHKVAPL [T12W],2.45

row,Variant,protein stability index
1,LNFQIEHHAFPTMPRHNYHKVAPL [L9A],1.39
2,LNFQIEHHRFPTMPRHNYHKVAPL [L9R],1.87
3,LNFQIEHHHFPTMPRHNYHKVAPL [L9H],1.8
4,LNFQIEHHCFPTMPRHNYHKVAPL [L9C],1.72
5,LNFQIEHHWFPTMPRHNYHKVAPL [L9W],3.23
6,LNFQIEHHYFPTMPRHNYHKVAPL [L9Y],2.1
7,LNFQIEHHEFPTMPRHNYHKVAPL [L9E],1.23
8,LNFQIEHHLFTTMPRHNYHKVAPL [P11T],2.24
9,LNFQIEHHLFGTMPRHNYHKVAPL [P11G],1.9
10,LNFQIEHHLFWTMPRHNYHKVAPL [P11W],3.17
11,LNFQIEHHLFNTMPRHNYHKVAPL [P11N],2.27
12,LNFQIEHHLFETMPRHNYHKVAPL [P11E],2.56
13,LNFQIEHHLFRTMPRHNYHKVAPL [P11R],1.81
14,LNFQIEHHLFATMPRHNYHKVAPL [P11A],2.35
15,LNFQIEHHLFPTMPRHNYWKVAPL [H19W],3.52
16,LNFQIEHHLFPTMPRHNYIKVAPL [H19I],3.24
17,LNFQIEHHLFPTMPRHNYQKVAPL [H19Q],2
18,LNFQIEHHLFPTMPRHNYAKVAPL [H19A],2.85
19,LNFQIEHHLFPTMPRHNYHKVAWL [P23W],2.27
20,LNFQIEHHLFPTMPRHNYHKVADL [P23D],1.33
21,LNFQIEHHLFPTMPRHNYHKVALL [P23L],2.4
22,LNFQIEHHLFPTMPRHNYHPVAPL [K20P],2.71
23,LNFQIEHHLFPTMPRHNYHTVAPL [K20T],1.79
24,LNFQIEHHLFPTMPRHNYHAVAPL [K20A],1.9

row,Variant,protein stability index
1,LNFQIEHHLFPTMPRHNYHCVAPL [K20C],2.2
2,LNFQIEHHLFPTMPRHNYHIVAPL [K20I],2.65
3,LNFQIEHHLFPTMPRTNYHKVAPL [H16T],1.77
4,LNFQIHHHLFPTMPRHNYHKVAPL [E6H],2.31
5,LNFQIDHHLFPTMPRHNYHKVAPL [E6D],2.54
6,LNFQIEHHLFPTMPRHNEHKVAPL [Y18E],2.65
7,LNFQIEHHLFPTMPRHNGHKVAPL [Y18G],1.81
8,LNFQIEHHLFPTMPRHNWHKVAPL [Y18W],2.78
9,LNFQIEHHLFPTMERHNYHKVAPL [P14E],2.13
10,LNFQIEHHLFPTMQRHNYHKVAPL [P14Q],2.54
11,LNFQIEHHLFPTMMRHNYHKVAPL [P14M],2.44
12,LNFQIEHHLFPTMCRHNYHKVAPL [P14C],3.64
13,LNFQIEHHLFPTMPRHNYHKIAPL [V21I],3.07
14,LNFQIEHHLFPTMPRHNYHKYAPL [V21Y],1.94
15,LNFQIEHHLFPTMPRHNYHKTAPL [V21T],2.23
16,LNFQIEEHLFPTMPRHNYHKVAPL [H7E],1.76
17,LNFQIEDHLFPTMPRHNYHKVAPL [H7D],1.93
18,LNFQIEMHLFPTMPRHNYHKVAPL [H7M],2.96
19,LNFQIEHHLFPTAPRHNYHKVAPL [M13A],2.02
20,LNFQIEHHLFPTHPRHNYHKVAPL [M13H],2.04
21,LNFQIEHHLFPTEPRHNYHKVAPL [M13E],1.35
22,LNFQIEHHLFPTDPRHNYHKVAPL [M13D],1.82

# Source: the supplement of paper PMC10567573
